IntAct's records for PubMed 24012335

B1: Merlin (Homo sapiens), P35240 (parent)
chain: MAGAIASRMSFSSLKRKQPKTFTVRIVTMDAEMEFNCEMKWKGKDLFDLVCRTLGLRETWFFGLQYTIKDTVAWLKMDKKVLDHDVSKEEPVTFHFLAKFYPENAEEELVQEITQHLFFLQVKKQILDEKIYCPPEASVLLASYAVQAKYGDYDPSVHKRGFLAQEELLPKRVINLYQMTPEMWEERITAWYAEHRGRARDEAEMEYLKIAQDLEMYGVNYFAIRNKKGTELLLGVDALGLHIYDPENRLTPKISFPWNEIRNISYSDKEFTIKPLDKKIDVFKFNSSKLRVNKLILQLCIGNHDLFMRRRKADSLEVQQMKAQAREEKARKQMERQRLAREKQMREEAERTRDELERRLLQMKEEATMANEALMRSEETADLLAEKAQITEEEAKLLAQKAAEAEQEMQRIKATAIRTEEEKRLMEQKVLEAEVLALKMAEESERRAKEADQLKQDLQEAREAERRAKQKLLEIATKPTYPPMNPIPAPLPPDIPSFNLIGDSLSFDFKDTDMKRLSMEIEKEKVEYMEKSKHLQEQLNELKTEIEALKLKERETALDILHNENSDRGGSSKHNTIKKLTLQSAKSRVAFFEEL
partner: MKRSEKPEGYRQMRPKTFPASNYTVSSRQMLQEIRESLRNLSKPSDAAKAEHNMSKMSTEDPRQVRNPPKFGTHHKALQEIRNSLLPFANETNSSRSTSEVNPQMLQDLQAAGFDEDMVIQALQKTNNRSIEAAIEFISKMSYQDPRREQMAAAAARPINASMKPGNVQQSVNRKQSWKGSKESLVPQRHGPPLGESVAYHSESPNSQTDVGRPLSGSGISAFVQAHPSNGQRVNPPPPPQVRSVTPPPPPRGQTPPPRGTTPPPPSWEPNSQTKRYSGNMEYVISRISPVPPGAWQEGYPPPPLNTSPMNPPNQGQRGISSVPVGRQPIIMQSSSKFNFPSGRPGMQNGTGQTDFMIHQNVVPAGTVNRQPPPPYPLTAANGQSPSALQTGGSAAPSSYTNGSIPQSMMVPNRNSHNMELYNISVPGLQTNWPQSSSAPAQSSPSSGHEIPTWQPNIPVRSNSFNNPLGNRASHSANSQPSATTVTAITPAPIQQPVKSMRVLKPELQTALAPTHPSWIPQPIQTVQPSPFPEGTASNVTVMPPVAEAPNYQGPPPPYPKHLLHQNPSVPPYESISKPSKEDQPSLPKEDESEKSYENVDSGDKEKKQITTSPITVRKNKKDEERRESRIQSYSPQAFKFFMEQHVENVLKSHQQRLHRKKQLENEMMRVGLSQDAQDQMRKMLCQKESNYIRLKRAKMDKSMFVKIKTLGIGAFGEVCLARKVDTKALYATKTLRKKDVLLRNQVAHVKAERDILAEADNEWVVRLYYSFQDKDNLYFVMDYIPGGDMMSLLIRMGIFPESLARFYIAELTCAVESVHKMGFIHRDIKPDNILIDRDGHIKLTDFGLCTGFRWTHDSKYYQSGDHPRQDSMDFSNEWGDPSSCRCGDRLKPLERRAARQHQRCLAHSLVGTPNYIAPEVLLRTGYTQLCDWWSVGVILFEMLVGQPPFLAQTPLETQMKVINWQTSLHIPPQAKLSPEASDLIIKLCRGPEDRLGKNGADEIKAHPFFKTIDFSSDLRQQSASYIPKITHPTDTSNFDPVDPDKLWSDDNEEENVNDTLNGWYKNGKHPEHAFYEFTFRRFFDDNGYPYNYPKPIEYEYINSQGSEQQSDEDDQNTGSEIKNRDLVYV
B2: Serine/threonine-protein kinase Warts (Drosophila melanogaster (Fruit fly)), Q9VA38 (parent)
chain: MHPAGEKRGGRPNDKYTAEALESIKQDLTRFEVQNNHRNNQNYTPLRYTATNGRNDALTPDYHHAKQPMEPPPSASPAPDVVIPPPPAIVGQPGAGSISVSGVGVGVVGVANGRVPKMMTALMPNKLIRKPSIERDTASSHYLRCSPALDSGAGSSRSDSPHSHHTHQPSSRTVGNPGGNGGFSPSPSGFSEVAPPAPPPRNPTACSAATPPPPVPPTSQAYVKRRSPALNNRPPAIAPPTQRGNSPVITQNGLKNPQQQLTQQLKSLNLYPGGGSGAVVEPPPPYLIQGGAGGAAPPPPPPSYTASMQSRQSPTQSQQSDYRKSPSSGIYSATSAGSPSPITVSLPPAPLAKPQPRVYQARSQQPIIMQSVKSTQVQKPVLQTAVAPQSPSSASASNSPVHVLAAPPSYPQKSAAVVQQQQQAAAAAHQQQHQHQQSKPPTPTTPPLVGLNSKPNCLEPPSYAKSMQAKAATVVQQQQQQQQQQQQVQQQQVQQQQQQQQQQLQALRVLQAQAQRERDQRERDQRERERDQQKLANGNPGRQMLPPPPYQSNNNNNSEIKPPSCNNNNIQISNSNLATTPPIPPAKYNNNSSNTGANSSGGSNGSTGTTASSSTSCKKIKHASPIPERKKISKEKEEERKEFRIRQYSPQAFKFFMEQHIENVIKSYRQRTYRKNQLEKEMHKVGLPDQTQIEMRKMLNQKESNYIRLKRAKMDKSMFVKLKPIGVGAFGEVTLVSKIDTSNHLYAMKTLRKADVLKRNQVAHVKAERDILAEADNNWVVKLYYSFQDKDNLYFVMDYIPGGDLMSLLIKLGIFEEELARFYIAEVTCAVDSVHKMGFIHRDIKPDNILIDRDGHIKLTDFGLCTGFRWTHNSKYYQENGNHSRQDSMEPWEEYSENGPKPTVLERRRMRDHQRVLAHSLVGTPNYIAPEVLERSGYTQLCDYWSVGVILYEMLVGQPPFLANSPLETQQKVINWEKTLHIPPQAELSREATDLIRRLCASADKRLGKSVDEVKSHDFFKGIDFADMRKQKAPYIPEIKHPTDTSNFDPVDPEKLRSNDSTMSSGDDVDQNDRTFHGFFEFTFRRFFDDKQPPDMTDDQAPVYV
partner: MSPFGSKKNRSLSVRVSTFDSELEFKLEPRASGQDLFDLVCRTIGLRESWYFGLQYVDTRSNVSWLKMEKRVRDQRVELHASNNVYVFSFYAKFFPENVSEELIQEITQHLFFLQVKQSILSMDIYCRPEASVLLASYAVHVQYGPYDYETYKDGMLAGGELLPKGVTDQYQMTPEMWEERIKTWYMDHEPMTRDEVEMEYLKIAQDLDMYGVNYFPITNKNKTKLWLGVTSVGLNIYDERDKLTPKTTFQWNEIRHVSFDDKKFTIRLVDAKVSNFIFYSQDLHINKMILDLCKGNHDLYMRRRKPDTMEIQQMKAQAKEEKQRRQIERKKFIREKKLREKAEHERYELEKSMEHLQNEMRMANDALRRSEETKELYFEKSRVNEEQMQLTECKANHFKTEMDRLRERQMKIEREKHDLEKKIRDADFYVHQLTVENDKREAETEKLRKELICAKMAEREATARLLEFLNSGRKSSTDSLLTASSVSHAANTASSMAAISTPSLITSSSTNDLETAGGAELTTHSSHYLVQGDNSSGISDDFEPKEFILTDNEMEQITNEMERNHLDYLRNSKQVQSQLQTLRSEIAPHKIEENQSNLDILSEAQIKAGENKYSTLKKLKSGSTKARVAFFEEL
B3: Serine/threonine-protein kinase Warts (Drosophila melanogaster (Fruit fly)), Q9VA38 (parent)
chain: B2 chain
partner: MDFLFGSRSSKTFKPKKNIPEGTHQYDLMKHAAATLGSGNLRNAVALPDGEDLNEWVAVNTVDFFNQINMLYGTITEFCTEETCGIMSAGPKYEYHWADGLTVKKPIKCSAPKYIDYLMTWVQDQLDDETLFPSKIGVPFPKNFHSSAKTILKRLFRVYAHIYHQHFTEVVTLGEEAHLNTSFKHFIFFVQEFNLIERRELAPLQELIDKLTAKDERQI
B4: Serine/threonine-protein kinase LATS1 (Homo sapiens), O95835 (parent)
chain: B1 partner

Variants of: B1
Conditions: with lats1_human LATS1, O95835

Row | effect of a mutation on the interaction | Variant
1 | disrupting interaction strength | L46R
2 | disrupting interaction strength | F62S
3 | disrupting interaction strength | L141P
4 | disrupting interaction strength | L64P

Variants of: B2
Conditions: with merh_drome Mer

Row | effect of a mutation on the interaction | Variant
5 | disrupting interaction strength | A20P;I24T;L28P

Variants of: B3
Conditions: with mob1_drome mats

Row | effect of a mutation on the interaction | Variant
6 | disrupting interaction strength | R708A

Variants of: B4
Conditions: with merl_human NF2, P35240

Row | effect of a mutation on the interaction | Variant
7 | disrupting interaction strength | A77P;I81T;L85P

Variants of: B4
Conditions: with NF2, P35240-1

Row | effect of a mutation on the interaction | Variant
8 | disrupting interaction strength | A77P;I81T;L85P
